Experimental data: patent US5973116

Molecular target: human placental alkaline phosphatase (hPLAP) (human) (UniProt P05187)
Test: ELISA plate with bound antigen, washed with copious amounts of 50 mM DEA

H17-BSRNase and H17-BSRNaseKDEL are the same in percent washed off with 50 mM DEA: 40% for the first, 40% for the second.

First: H17-Link-BSRNaseKDEL
Second: single-chain H17E2 antibody (scFv)
The percent washed off with 50 mM DEA of the first is lower: 40% for the first, > 90% for the second.
